Laboratory results: publication PMC4507534

What was measured:
Assay in all cases: purified protein
Settings in all cases: pH and temperature of the kinetic assay not given
purified protein [1] = substrate: COC(=O)C(C)Oc1ccc(Oc2ccc(Cl)cc2Cl)cc1
purified protein [2] = substrate: CCCCOC(=O)[C@@H](C)Oc1ccc(Oc2ccc(C(F)(F)F)cn2)cc1
purified protein [3] = substrate: COC(=O)[C@@H](C)Oc1ccc(Oc2ncc(C(F)(F)F)cc2Cl)cc1
purified protein [4] = substrate: C#CCOC(=O)[C@@H](C)Oc1ccc(Oc2ncc(Cl)cc2F)cc1
purified protein [5] = substrate: CCOC(=O)[C@@H](C)Oc1ccc(Oc2cnc3cc(Cl)ccc3n2)cc1
purified protein [6] = substrate: CCOC(=O)[C@@H](C)Oc1ccc(Oc2nc3ccc(Cl)cc3o2)cc1

B1: FeH (FE-hydrolyzing carboxylesterase) (Rhodococcus sp. JPL-2) (protein)
chain: MSDIHGVCDARFSALREALERNLDSGEDVGASIAVTLDGEPVVDIWGGSMDAGGSRPWERDTITNVWSCSKTVTALAALMLVDRGQLDLDAPVARYWSDFAANGKEGILVRHLLSHTSGVSGWDQPFTMDDLADTTKATELLAAQAPWWEPGTASGYHALNYGHLIGEVVRRVDGRTLTGFIEEEISRPLGADFRLGVARSDYSRVSEVIPPPPLPIDFATLDPASVMVKTFTGPPADATAAWGDGWREAEIGAANGHSNARALARIQSVIACGGRVGGVRLLSADTIDAIFDEQSYGVDLVLGVPVRFGVGFGLPTPESVPFVPEGRICFWGGWGGSQIIVDTERRMTVAYVMNKMGPGLLGSDRSAEYVSAAFAAVP
With B1 as the protein, how does the Km (purified protein [1]) read?
Its Km is 410 µM.

What about the kcat (purified protein [1]) of the same protein?
Its kcat is 0.33 s⁻¹.

What about the kcat/Km (purified protein [1]) of the same protein?
Its kcat/Km is 810 M⁻¹ s⁻¹.

What about the Km (purified protein [2]) of the same protein?
Its Km is 360 µM.

What about the kcat (purified protein [2]) of the same protein?
Its kcat is 0.59 s⁻¹.

And the kcat/Km (purified protein [2])?
Its kcat/Km is 1650 M⁻¹ s⁻¹.

What about the Km (purified protein [3]) of the same protein?
The Km was 390 µM.

What about the kcat (purified protein [3]) of the same protein?
Its kcat is 0.37 s⁻¹.

And the kcat/Km (purified protein [3])?
The kcat/Km was 940 M⁻¹ s⁻¹.

What about the Km (purified protein [4]) of the same protein?
Its Km is 290 µM.

And the kcat (purified protein [4])?
Its kcat is 0.61 s⁻¹.

And the kcat/Km (purified protein [4])?
The kcat/Km was 2090 M⁻¹ s⁻¹.

And the Km (purified protein [5])?
The Km was 230 µM.

What about the kcat (purified protein [5]) of the same protein?
The kcat was 0.75 s⁻¹.

What about the kcat/Km (purified protein [5]) of the same protein?
The kcat/Km was 3250 M⁻¹ s⁻¹.

And the Km (purified protein [6])?
The Km was 200 µM.

What about the kcat (purified protein [6]) of the same protein?
The kcat was 0.7 s⁻¹.

What about the kcat/Km (purified protein [6]) of the same protein?
The kcat/Km was 3520 M⁻¹ s⁻¹.
